Experimental data reported in doi:10.1101/2023.08.18.553786.

Experiments:
[1] = target: CDTb, the cell-binding component of the C. difficile binary toxin (CDT), active wild type (Clostridioides difficile); experiment: cryo-EM structure
[2] = target: CDTb^D623A/D734A, active Ca^2+-binding mutant of CDTb (Clostridioides difficile); experiment: cryo-EM structure

In the case of “CDTb, the cell-binding component of the C. difficile binary toxin (CDT), active wild type (natural protein)”, the stoichiometry N [1] is reported as 7.
“CDTb^D623A/D734A, active Ca^2+-binding mutant of CDTb (natural protein)” showed a stoichiometry N [2] of 7.
